Entries after “also recorded” stand apart in the source; their conditions may differ.
B1: SOCS3(22-185)(Δ129-163): 22-185 construct with Pro129-Arg163 replaced by an eight residue (Gly-Ser)x4 linker; SEQ ID NO:3 (protein, listed as Mus musculus)
chain: LKTFSSKSEYQLVVNAVRKLQESGFYWSAVTGGEANLLLSAEPAGTFLIRDSSDQRHFFTLSVKTQSGTKNLRIQCEGGSFSLQSDPRSTQPVPRFDCVLKLVHHYMGSGSGSGSAYYIYSGGEKIPLVLSRPLSSN
B2: ΔPEST SOCS3: Full-length SOCS3 lacking the PEST sequence (Δ129-163), Flag-tagged (protein)
chain: LKTFSSKSEYQLVVNAVRKLQESGFYWSAVTGGEANLLLSAEPAGTFLIRDSSDQRHFFTLSVKTQSGTKNLRIQCEGGSFSLQSDPRSTQPVPRFDCVLKLVHHYMGSGSGSGSAYYIYSGGEKIPLVLSRPLSSN
B3: SOCS3(22-225): Mouse SOCS3 residues 22-225 containing KIR, extended SH2 domain and SOCS box (protein)
chain: LKTFSSKSEYQLVVNAVRKLQESGFYWSAVTGGEANLLLSAEPAGTFLIRDSSDQRHFFTLSVKTQSGTKNLRIQCEGGSFSLQSDPRSTQPVPRFDCVLKLVHHYMPPPGTPSFSLPPTEPSSEVPEQPPAQALPGSTPKRAYYIYSGGEKIPLVLSRPLSSNVATLQHLCRKTVNGHLDSYEKVTQLPGPIREFLDQYDAPL
B4: SOCS3(22-185): Mouse SOCS3 residues 22-185 with KIR and extended SH2 domain, lacking the C-terminal SOCS box (protein)
chain: LKTFSSKSEYQLVVNAVRKLQESGFYWSAVTGGEANLLLSAEPAGTFLIRDSSDQRHFFTLSVKTQSGTKNLRIQCEGGSFSLQSDPRSTQPVPRFDCVLKLVHHYMPPPGTPSFSLPPTEPSSEVPEQPPAQALPGSTPKRAYYIYSGGEKIPLVLSRPLSSN

Legend:
SOCS3 = SOCS3 (Mus musculus, UniProt O35718); details: result in words; cited from earlier work
SOCS3, sequence (O35718 whole entry): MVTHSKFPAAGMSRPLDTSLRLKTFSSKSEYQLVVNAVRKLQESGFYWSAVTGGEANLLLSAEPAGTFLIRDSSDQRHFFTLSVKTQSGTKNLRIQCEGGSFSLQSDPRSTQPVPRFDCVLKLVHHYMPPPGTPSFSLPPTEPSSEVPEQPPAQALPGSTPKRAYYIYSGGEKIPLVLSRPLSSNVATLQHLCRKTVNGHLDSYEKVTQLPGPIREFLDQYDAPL

[1] = Description: (§1) Pelleted bacterial cells were resuspended in PBS and then lysed by homogenisation. The lysate was centrifuged at 20,000 g and the pelleted inclusion bodies solubilised using 6M GdnHCl. The protein was then purified using Ni-NTA resin (Qiagen) by binding at pH 8.0, washing at pH 6.3 and eluting at pH 4.5, all in 6M GdnHCl. The eluted protein was diluted to 0.1 mg/mL and a final GdnHCl concentration of 4 M and then refolded by extensive dialysis against 25 mM sodium phosphate, 50 mM sodium chloride, 5 mM 2-mercaptoethanol at pH 6.7.
All constructs contained the SH2 domain, as defined by sequence homology (Okazaki et al., 2002), but included differing lengths of sequence outside this region.
The six mutants (A50D, G53R, L58E, A62E, A65E, G99D) were all cloned and expressed in E. coli as part of a 22-185 construct.

293T cells = test: Pulse chase half-life experiments in 293T cells; type: cell-based; details: for effect of proteasome inhibitor MG132 on half-life: 10 μM MG-132, over eight hours; for labelled protein remaining: after 8 hr; for intracellular stability / turnover: pulse chase, result in words
Description: FIG. 9. Removing the PEST motif improves the intracellular half-life of SOCS3 and affects its degradation mechanism. • (A) Duplicate pulse chase experiments in 293T cells performed after transfection of (upper panel) wild-type (1-225) or ΔPEST (Δ129-163) SOCS3 DNA and (lower panel) ΔNC-SOCS3 (22-185) or ΔNC-Δ129-163 (22-185 ΔPEST) SOCS3 DNA. The amount of labelled protein remaining is shown as a perceintage of initial levels and plotted as a semi-log graph. […] Duplicate experiments are shown in each panel • (B) Removing the PEST motif alters the intracellular degradation pathway of SOCS3. Pulse chase experiments were performed on 293T cells transfected with wild-type SOCS3 (black) or ΔPEST SOCS3 (grey) and incubated in the presence (hashed bars) and absence (solid bars) of MG-132, a proteasome inhibitor. Experiments were performed in duplicate according to the protocol in (A) but with the addition of 10 μM MG-132 and the protein levels monitored over eight hours.
293T cells (5×10^5 cells/well) were transfected with 1.5 μg of the appropriate SOCS3 expression construct as described above. 48 h after transfection cells were washed twice in PBS and incubated for 1 h in Met/Cys-free DME (Gibco-BRL). Cells were then incubated for 30 min in DME containing 0.15 mCi/ml [^35S]Met/Cys (Perkin-Elmer) followed by DME+10% Foetal calf serum (Sigma)+2 mM Cys+2 mM Met for various times, upon which cells were lysed in KALB lysis buffer (1 mM EDTA, 150 mM NaCl, 50 mM Tris-Cl, 1% Triton X-100, pH 7.5) and the amount of [^35S]-labelled SOCS3 was determined by immunoprecipitation using anti-Flag tag M2 beads (Sigma). Detection and quantification was carried out using a FujiFilm FLA-3000 phosphoimager and associated software.
Intracellular levels of SOCS3 are strongly regulated by proteolysis. Two regions of the protein have been implicated previously in regulating proteolysis, Lys6 in the N-terminal domain and the C-terminal SOCS box (Chen et al., 2002; Kamura et al., 1998; Sasaki et al., 2003). As PEST motifs are known to be signals for protein degradation in vivo (Rogers et al., 1986), we measured the half-life of SOCS3 proteins that lacked the PEST motif, as well as constructs lacking the SOCS box and the N-terminal region. […] As the SOCS box and the N-terminal domains also affect SOCS3 turnover we further examined the effect of deleting these regions. The decrease in SOCS3 degradation upon removing the PEST motif from either the full-length protein (upper panel) or from SOCS322-185 (which lacks both the N-terminal domain and SOCS box, lower panel) was significant.
As PEST motifs have been associated with proteasome-mediated degradation, we investigated whether proteasome inhibitors would have an effect on the half-life of SOCS3 in 293T cells. […] After 8 hr in the presence of MG132 approximately 65% of ΔPEST SOCS3 remained, compared with ca. 45% in its absence. […] Thus it appears that, in 293T cells, the proteasomal pathway is an important route for ΔPEST SOCS3 degradation but that wild-type SOCS3, which contains the PEST motif, is efficiently degraded via another mechanism.

[2] = depending on the cell type; cited from earlier work
[3] = molecular target: tyrosine phosphorylated peptide from gp130 (Mus musculus, UniProt Q00560, Q756E); test: Binding studies and isothermal titration calorimetry (ITC) with gp130 peptide; details: for ΔH: FIG. 4 titration, fit to single site binding isotherm
Description: as §1

[4] = tested on: LIF-induced Stat3 activity; test: Stat3-responsive luciferase assay in 293T cells; type: cell-based; details: 100 or 300 ng cDNA, 10 ng/ml LIF overnight
Description: FIG. 8. […] Backbone amide chemical shift differences between residues in wild-type SOCS3 and ΔPEST SOCS3, which has residues 129-163 replaced by […] (SEQ ID NO:10), are plotted against residue number; amide proton and nitrogen chemical shift differences were averaged according to Δδav, a weighted average of the ^15N and ^1HN chemical shifts as follows: Δδav={0.5[Δδ(^1HN)^2+(0.2Δδ(15N))^2]}^1/2 (Pellecchia et al., 1999). The position of the PEST sequence is marked by a double asterisk. • (B) SOCS3 PEST deletion mutants are able to inhibit STAT activation. 293T cells were transiently transfected with 100 or 300 ng cDNA expressing various Flag-tagged SOCS-3 proteins in the presence of the Stat3-responsive reporter gene. […] Upper panel: Luciferase activity from triplicate samples was determined and normalized against Renilla luciferase activity. Lower panel: Lysates were analysed by Western blot with anti-Flag antibody. […]
Firefly and Renilla luciferase activities were quantified using substrate reagents from the Luciferase Assay Dual-Reporter kit (Promega, Madison Wis.) and an automated LUMIstar Galaxy plate reader (BMG Technologies, Offenburg, Germany). SOCS3 protein expression was analysed by Western blot with polyclonal rat anti-Flag antibody (Drs. D. Huang & L. O'Reilly, The Walter and Eliza Hall Institute of Medical Research, Melbourne, Australia) as described (Nicholson et al., 1999). […]

Molecule | solubility (in words) [1] | effect of proteasome inhibitor MG132 on half-life (293T cells) | ΔH [3] [kcal/mol] | intracellular stability / turnover (293T cells) | further results
STASTVEpYSTVVHSG [phosphotyrosine peptide from gp130] |  |  |  |  | binding to mouse SOCS3 (SOCS3): bind with high affinity
wild-type SOCS3: Wild-type (1-225) murine SOCS3, Flag-tagged in the cell assays; SEQ ID NO:1 | too low for structure determination | did not affect the half-life; also recorded: no effect on the half-life |  |  | labelled protein remaining (293T cells; MG132 state not specified (no effect on wild-type)): 25%; half-life [2]: under 5 minutes to over 8 hours
B1 |  |  | -6.4 | improved its in vivo stability | binding to the gp130 peptide ([3]; result in words): binds to the gp130 peptide
B2 |  | dramatically increased the half-life; also recorded: significantly increased the half-life |  | improved its in vivo stability | ability to inhibit LIF-induced Stat3 activity [4]: did not alter the ability of SOCS3 to inhibit LIF-induced Stat3 activity; labelled protein remaining (293T cells; in the absence of MG132): ca. 45%; labelled protein remaining (293T cells; in the presence of MG132 (10 μM)): approximately 65%
B3 | too poorly soluble |  |  |  | solubility in NaCl/Pi [1]: < 1000 µg/mL
B4 | highest solubility |  | -6.2 |  | soluble to [1]: ≈ 0.5 mM
